The values below are quoted from earlier work in US5874218.

This data set relates to T1, VEGF165 (Homo sapiens), P15692-4.
T1 sequence: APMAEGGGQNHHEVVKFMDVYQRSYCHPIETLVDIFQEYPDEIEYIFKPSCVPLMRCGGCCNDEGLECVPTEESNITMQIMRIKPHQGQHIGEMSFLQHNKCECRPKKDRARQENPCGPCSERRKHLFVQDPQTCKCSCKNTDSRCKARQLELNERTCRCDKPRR
The following applies: modified to be nuclease resistant (Green et al. 1995); CITED; value stated for the ligand with reference to Green et al. 1995.

A word on the Kd: it is a measure of binding affinity in units of concentration. In the case of “NTTTTACCCUGAUGGUAGACGCCGGGGUGTTTTT [NX-244]”, the Kd was 0.14 nM.
